Experimental data as given in patent CN111978395A (UNIV SICHUAN, dated 2020).
Substitutions are numbered along the chain they refer to.

B1: DK2 (antibody, V domains shown)
VH: QVQLQQPGAELVKPGASVKMSCKASGYTFISYSMHWVKQTPGQGLEWIGAIYPGNGDTSYTQKFKGKATLTADKSSTTAYMQLSSLTSEDSAVYYCARDHGNYVLDYWGQGTTLTVSS
VL: DIVMTQSHKFMSTSVGDRVSITCKASQDVGTAVAWYQQKPGQSPKLLIYWASTRHTGVPDRFTGSGSGTDFTLTISNVQSEDLADYFCQQYSSYPWTFGGGTKLEIK
B2: DK15 (antibody, V domains shown)
VH: QVQLQQPGAEFVMPGASVKMSCKASGYTFTDYWMHWVKQRPGQGLEWIGAIDTSDTYTRYNQKFKDKATLTVDESSSTAYMQLSSLTSEDSAVYYCARFLYYYGNPTFDYWGQGTTLTVSS
VL: DVQITQSPSYLAASPGETITINCRASKSISKYLAWYQEKPGKTNKLLIYSGSTLQSGIPSRFSGSGSGTDFTLTISSLEPEDFAMYYCQQHNEYPLTFGAGTKLELK
B3: DK5 (antibody, V domains shown)
VH: QVQLQQPGAELVKPGASVKMSCKASGYTFTSYSMHWVKQTPGQGLEWIGAIYPGNGDTSYNQKFKGKATLTADKSSSTAYMQLSSLTSEDSAVYYCARDYHYDGYYVTLDYWGQGTTLTVSS
VL: DIQMTQSPSSLSASLGERVSLTCRASQEISGYLSWLQQKPDGTIKRLIYAASTLDSGVPKRFSGSRSGSDYSLTISSLESEDFADYYCLQYASYPWTFGGGTKLEIK
B4: DK7 (antibody, V domains shown)
VH: B3 VH
VL: B3 VL
B5: DK10 (antibody, V domains shown)
VH: B3 VH with N61T, S84N
VL: B3 VL
B6: DK6 (antibody, V domains shown)
VH: B3 VH with A9T, M34I
VL: B3 VL
B7: DK14 (antibody, V domains shown)
VH: QVQLQQPGAELVKPGASVKLSCKASGYTFISYWMHWVKQRPGQGLEWIGEIDPSDSYTNSNQKFKGKATLTVDKSSSTAYMQLSSLTSEDSAVYYCARSELWAMDYWGQGTSVTVSS
VL: DIVMTQAAFSNPVTLGTSASISCRSSKSLLHSHGITYLYWYLQKPGQSPQLLIYQMSNLASGVPDRFSSSGSGTDFTLRISRVEAEDVGVYYCAQNLELPWTFGGGTKLEIR
B8: DK11 (antibody, V domains shown)
VH: EVQLQQSGPELVKPGASVKISCKASGYSFTGYFMNWVKQSHGKSLEWIGRINPYNGDTFYNQKFKGKATLTVDKSSSTAHMELLSLTSEDSAVYYCGRGYLDYWGQGTTLTVSS
VL: DIVMTQSHKFMSTSVGDRVSITCKASQDVSTAVAWYQQKPGQSPKLLIFSASYRYTGVPDRFTGSGSGTDFTFTISSVQAEDLAVYYCQEHYSNPYTFGGGTKLEIK

Biological target: SARS-CoV2病毒的囊膜蛋白SPIKE (SARS-CoV2, UniProt P0DTC2 14-1273)
Assay: cell-based or functional assay

| Binder | EC50(nM), 阻断假病毒感染 (GFP阳性细胞) | EC50(μg/mL), 阻断假病毒感染 (GFP阳性细胞) |
| --- | --- | --- |
| B1 | 0.083 nM | 0.012 µg/mL |
| B2 | 1.27 nM | 0.191 µg/mL |
| B3 | 0.1 nM | 0.015 µg/mL |
| B4 | 0.47 nM | 0.071 µg/mL |
| B5 | 1.63 nM | 0.245 µg/mL |
| B6 | 0.47 nM | 0.071 µg/mL |
| B7 | 0.41 nM | 0.062 µg/mL |
| B8 | 0.34 nM | 0.051 µg/mL |

Biological target: T1, SARS-CoV2病毒表面SPIKE蛋白的RBD结构域 (SARS-CoV2, UniProt P0DTC2 319-541)
Assay: Biacore (SPR), recombinant antibody against RBD

| Binder | Kd |
| --- | --- |
| B1 | < 1 nM |
| B3 | < 1 nM |
| B6 | < 1 nM |

Biological target: T1, SARS-CoV2病毒表面SPIKE蛋白的RBD结构域
Assay: Biacore blocking experiment, antibody of the hybridoma clone

| Binder | 阻断率 |
| --- | --- |
| B1 | ≥ 60% |
| B3 | ≥ 60% |
| B6 | ≥ 60% |
